Experimental data published in patent US7033991.
Where two headings read alike, the source gives them in different places. No end group written: not given here.

Columns and labels:
Conditions in all cases: modification not given
[1] = biological target: T1, Furin (recombinant, truncated) (mouse), P23188
T1 chain: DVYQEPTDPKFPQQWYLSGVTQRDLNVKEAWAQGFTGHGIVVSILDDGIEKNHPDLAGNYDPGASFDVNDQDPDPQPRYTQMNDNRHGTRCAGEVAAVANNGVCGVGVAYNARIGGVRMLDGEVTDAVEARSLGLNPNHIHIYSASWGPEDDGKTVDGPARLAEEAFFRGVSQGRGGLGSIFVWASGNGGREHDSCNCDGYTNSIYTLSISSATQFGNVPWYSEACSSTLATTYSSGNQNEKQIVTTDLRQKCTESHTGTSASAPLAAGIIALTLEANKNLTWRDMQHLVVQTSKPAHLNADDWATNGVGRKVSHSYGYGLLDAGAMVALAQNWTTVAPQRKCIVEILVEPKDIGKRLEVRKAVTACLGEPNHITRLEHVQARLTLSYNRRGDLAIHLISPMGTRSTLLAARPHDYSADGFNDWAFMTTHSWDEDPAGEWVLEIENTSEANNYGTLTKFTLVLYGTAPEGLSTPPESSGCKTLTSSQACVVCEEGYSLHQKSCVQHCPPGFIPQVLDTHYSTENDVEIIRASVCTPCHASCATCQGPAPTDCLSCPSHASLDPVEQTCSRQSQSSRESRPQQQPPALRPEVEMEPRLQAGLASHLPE

PC2, P16519 [2] = biological target: T2, PC2, P16519
T2 chain: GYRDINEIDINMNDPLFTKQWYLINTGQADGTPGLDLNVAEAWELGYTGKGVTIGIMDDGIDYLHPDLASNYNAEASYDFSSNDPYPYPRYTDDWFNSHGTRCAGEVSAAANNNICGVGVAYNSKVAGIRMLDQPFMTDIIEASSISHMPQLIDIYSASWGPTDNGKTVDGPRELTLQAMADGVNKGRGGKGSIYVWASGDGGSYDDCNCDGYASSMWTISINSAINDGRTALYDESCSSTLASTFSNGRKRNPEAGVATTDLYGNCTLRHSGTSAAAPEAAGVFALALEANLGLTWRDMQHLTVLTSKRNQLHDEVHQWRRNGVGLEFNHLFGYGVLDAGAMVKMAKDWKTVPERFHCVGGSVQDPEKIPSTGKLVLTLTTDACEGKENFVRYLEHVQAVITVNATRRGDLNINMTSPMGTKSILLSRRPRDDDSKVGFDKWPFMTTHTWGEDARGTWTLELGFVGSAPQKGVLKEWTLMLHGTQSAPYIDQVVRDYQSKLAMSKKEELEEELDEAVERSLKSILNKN

PC7, Q16549 = biological target: T3, PC7, Q16549
T3 chain: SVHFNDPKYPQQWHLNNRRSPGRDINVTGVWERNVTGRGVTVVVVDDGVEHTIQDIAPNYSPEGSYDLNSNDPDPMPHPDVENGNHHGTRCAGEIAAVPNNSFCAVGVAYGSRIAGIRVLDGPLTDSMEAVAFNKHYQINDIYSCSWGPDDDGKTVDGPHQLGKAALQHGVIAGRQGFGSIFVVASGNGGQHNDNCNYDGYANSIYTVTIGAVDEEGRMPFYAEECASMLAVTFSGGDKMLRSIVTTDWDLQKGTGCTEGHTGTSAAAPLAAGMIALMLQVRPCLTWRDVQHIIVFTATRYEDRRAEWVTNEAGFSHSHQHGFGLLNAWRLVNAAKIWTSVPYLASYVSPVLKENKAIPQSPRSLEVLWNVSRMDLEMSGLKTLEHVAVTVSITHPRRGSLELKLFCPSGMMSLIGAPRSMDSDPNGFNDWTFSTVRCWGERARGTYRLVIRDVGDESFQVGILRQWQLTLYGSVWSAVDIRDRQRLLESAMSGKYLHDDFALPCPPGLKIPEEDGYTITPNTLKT

[3] = biological target: T1, Furin (recombinant, truncated) (mouse), …
PC2, P16519 [4] = biological target: T2, PC2, P16519
PACE4, P29122 [5] = biological target: T4, PACE4, P29122
T4 chain: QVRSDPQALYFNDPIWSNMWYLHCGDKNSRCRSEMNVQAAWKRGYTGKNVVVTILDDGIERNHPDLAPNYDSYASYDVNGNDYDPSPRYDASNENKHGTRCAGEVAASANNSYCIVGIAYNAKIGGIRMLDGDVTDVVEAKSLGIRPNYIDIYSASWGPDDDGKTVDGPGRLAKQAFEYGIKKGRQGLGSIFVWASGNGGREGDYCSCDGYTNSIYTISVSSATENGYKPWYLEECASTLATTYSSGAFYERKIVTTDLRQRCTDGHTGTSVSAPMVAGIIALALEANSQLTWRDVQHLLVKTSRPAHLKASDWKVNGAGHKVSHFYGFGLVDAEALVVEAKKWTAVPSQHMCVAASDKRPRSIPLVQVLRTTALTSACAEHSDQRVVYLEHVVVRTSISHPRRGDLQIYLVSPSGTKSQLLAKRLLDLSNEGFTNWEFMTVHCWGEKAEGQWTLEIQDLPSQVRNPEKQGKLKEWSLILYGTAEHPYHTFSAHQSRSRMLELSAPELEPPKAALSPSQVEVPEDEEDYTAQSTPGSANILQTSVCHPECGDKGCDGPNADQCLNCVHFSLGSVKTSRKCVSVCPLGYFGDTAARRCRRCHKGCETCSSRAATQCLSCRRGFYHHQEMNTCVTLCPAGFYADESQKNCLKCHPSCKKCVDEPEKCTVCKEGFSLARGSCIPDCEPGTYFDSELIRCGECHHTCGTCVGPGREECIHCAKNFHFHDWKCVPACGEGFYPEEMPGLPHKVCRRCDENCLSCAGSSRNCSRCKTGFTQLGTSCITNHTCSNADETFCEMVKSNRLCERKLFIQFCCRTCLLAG

[6] = biological target: T1, Furin (recombinant, truncated) (mouse), …
PC1, P29120 [7] = biological target: T5, PC1, P29120
T5 chain: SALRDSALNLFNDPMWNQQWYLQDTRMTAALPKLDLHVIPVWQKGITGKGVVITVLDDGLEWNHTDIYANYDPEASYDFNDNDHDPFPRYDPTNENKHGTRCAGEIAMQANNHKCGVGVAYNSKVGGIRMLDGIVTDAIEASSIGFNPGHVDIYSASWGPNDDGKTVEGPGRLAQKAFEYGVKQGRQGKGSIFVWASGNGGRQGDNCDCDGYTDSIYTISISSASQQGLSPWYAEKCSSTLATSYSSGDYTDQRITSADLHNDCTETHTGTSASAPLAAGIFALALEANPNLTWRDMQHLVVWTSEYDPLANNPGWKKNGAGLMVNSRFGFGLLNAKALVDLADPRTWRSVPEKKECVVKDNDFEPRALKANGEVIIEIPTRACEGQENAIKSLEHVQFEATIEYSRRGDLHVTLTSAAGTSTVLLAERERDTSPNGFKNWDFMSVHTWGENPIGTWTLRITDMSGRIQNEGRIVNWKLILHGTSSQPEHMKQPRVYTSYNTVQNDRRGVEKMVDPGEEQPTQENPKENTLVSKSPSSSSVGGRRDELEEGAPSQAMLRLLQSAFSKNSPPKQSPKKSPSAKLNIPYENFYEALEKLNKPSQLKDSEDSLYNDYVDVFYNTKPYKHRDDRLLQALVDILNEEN

PC2, P16519 [8] = biological target: T2, PC2, P16519
[9] = biological target: T1, Furin (recombinant, truncated) (mouse), …
PC2, P16519 [10] = biological target: T2, PC2, P16519
[11] = biological target: T1, Furin (recombinant, truncated) (mouse), …
[12] = biological target: T1, Furin (recombinant, truncated) (mouse), …
PACE4, P29122 [13] = biological target: T4, PACE4, P29122
PC1, P29120 [14] = biological target: T5, PC1, P29120
PC2, P16519 [15] = biological target: T2, PC2, P16519
[16] = biological target: T1, Furin (recombinant, truncated) (mouse), …
PACE4, P29122 [17] = biological target: T4, PACE4, P29122
[18] = biological target: T1, Furin (recombinant, truncated) (mouse), …
PC1, P29120 [19] = biological target: T5, PC1, P29120

B1: LLRVKR-NH2 (peptide)
chain: LLRVKR-NH2
For B1, the Ki [1] was 0.8 µM and the Ki (PC2, P16519 [2]) was 2.3 µM.

B2: Furin propeptide fragment (peptide)
chain: QQVAKRRTKR
In the case of B2, the Ki (PC7, Q16549) is reported as 0.5 µM.

B3: LLRVKR (peptide)
chain: LLRVKR
Work on B3 yielded a Ki [3] of 0.42 µM and a Ki (PC2, P16519 [4]) of 3.7 µM.

B4: Tetra-L-arginine (peptide)
chain: RRRR
In the case of B4, the Ki (PACE4, P29122 [5]) is reported as over 200 µM, the Ki [6] is reported as 6.4 µM and the Ki (PC1, P29120 [7]) is reported as over 200 µM.

B5: Ac-MRKRRR-NH2 (peptide)
chain: Ac-MRKRRR-NH2
Work on B5 yielded a Ki (PC2, P16519 [8]) of 1500 µM and a Ki [9] of 2.3 µM.

B6: Ac-HHKRRR-NH2 (peptide)
chain: Ac-HHKRRR-NH2
Work on B6 yielded a Ki (PC2, P16519 [10]) of 235 µM and a Ki [11] of 13.2 µM.

B7: Hepta-L-arginine (peptide)
chain: RRRRRRR
In the case of B7, the Ki [12] is reported as 0.068 µM, the Ki (PACE4, P29122 [13]) is reported as 0.24 µM and the Ki (PC1, P29120 [14]) is reported as 5.2 µM.

B8: Ac-MHKRRR-NH2 (peptide)
chain: Ac-MHKRRR-NH2
B8 was tested, and the Ki (PC2, P16519 [15]) was 216 µM and the Ki [16] was 10.3 µM.

B9: Hexa-L-arginine (peptide)
chain: RRRRRR
For B9, the Ki (PACE4, P29122 [17]) was 0.52 µM, the Ki [18] was 0.114 µM and the Ki (PC1, P29120 [19]) was 3.9 µM.
